According to patent US20260097098A1:

Molecular target: human VEGF165 (non-biotinylated) (human) (UniProt P15692)
Assay: cell-based or functional assay

human VEGF165 (non-biotinylated) (human), sequence (P15692 other isoform, or with tags, fused parts or gaps): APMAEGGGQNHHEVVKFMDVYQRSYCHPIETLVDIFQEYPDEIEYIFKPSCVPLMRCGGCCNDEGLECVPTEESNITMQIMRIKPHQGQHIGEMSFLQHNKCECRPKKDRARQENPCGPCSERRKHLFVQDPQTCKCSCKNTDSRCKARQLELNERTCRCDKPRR

maximal inhibition of VEGF-stimulated proliferation: < 80%
Substance: EYLEA (aflibercept) (Fc fusion)
